From article PMC6915727

Target: human Toll-like receptor 5 (TLR5) in stably transfected HEK293 cells (TLR5+) (human) (UniProt O60602)
UniProt O60602, sequence (O60602 21-858): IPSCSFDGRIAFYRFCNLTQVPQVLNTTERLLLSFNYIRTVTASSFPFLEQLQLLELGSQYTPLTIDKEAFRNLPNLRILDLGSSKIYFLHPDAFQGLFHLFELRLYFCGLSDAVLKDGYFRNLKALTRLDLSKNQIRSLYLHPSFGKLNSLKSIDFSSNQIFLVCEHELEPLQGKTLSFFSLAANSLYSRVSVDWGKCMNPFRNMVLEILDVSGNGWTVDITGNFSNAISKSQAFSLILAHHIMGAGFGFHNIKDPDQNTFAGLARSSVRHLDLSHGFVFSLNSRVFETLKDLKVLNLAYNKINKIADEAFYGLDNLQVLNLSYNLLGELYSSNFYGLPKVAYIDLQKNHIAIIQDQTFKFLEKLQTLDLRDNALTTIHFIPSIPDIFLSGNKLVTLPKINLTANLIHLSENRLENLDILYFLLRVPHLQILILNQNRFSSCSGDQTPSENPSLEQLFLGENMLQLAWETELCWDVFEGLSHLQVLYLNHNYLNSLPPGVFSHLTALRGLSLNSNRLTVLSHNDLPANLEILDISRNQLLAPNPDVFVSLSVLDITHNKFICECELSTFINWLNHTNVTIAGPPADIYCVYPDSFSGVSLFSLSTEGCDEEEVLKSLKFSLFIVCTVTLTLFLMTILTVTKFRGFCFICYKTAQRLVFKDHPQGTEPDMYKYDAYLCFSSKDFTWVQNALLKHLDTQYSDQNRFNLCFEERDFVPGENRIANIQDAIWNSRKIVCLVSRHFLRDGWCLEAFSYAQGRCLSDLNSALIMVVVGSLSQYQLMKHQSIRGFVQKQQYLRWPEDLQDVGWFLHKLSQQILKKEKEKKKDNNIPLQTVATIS

“recombinant CagL wild type (CagL^WT), C-terminal His-tag fusion (natural protein)” gave an NF-κB luciferase activity in TLR5+ HEK293 cells, dose-response of recombinant CagL WT (EC50) of 173 nM.
